Measurements from US20240101981A1 (LINNO PHARMACEUTICALS, published 2024).

Molecular target: T1, human transferrin (human, UniProt P02787 20-698)
T1 construct: mature; also called hTf; native human transferrin
Assay: ELISA, biotinylated human transferrin on streptavidin plate, anti-hARSA detection
Description: A 96-well plate was coated with streptavidin (0.1 μg/mL, 100 μL/well) and incubated overnight at 4° C.; after washing the plate three times with buffer PBST, the 96-well plate was blocked with 200 μL of PBST containing 1% bovine serum albumin (BSA) for 1 hour at room temperature. The plate was then washed three times with PBST, added with biotinylated human transferrin (1 μg/mL, 100 μL/well) and incubated at room temperature for 1 hour. […] The plate was then washed three times with PBST, added with goat anti-hARSA antibody (R&D, AF2485) (100 μL/well) at a concentration of 0.125 ug/mL to each well and incubated at room temperature for 1 hour. The plate was then washed three times with PBST, added with 100 μL anti-goat IgG-HRP to each well and incubated at room temperature for 0.5 hour, followed by the same washing steps aforementioned. The plate was then added with 100 μL/well of TMB substrate solution and incubated at room temperature for 15 minutes. The reaction was then stopped by adding 100 μL/well of the stop solution, and the absorbance was read at 450 nm using an ELISA reader.

T1 sequence (P02787 20-698): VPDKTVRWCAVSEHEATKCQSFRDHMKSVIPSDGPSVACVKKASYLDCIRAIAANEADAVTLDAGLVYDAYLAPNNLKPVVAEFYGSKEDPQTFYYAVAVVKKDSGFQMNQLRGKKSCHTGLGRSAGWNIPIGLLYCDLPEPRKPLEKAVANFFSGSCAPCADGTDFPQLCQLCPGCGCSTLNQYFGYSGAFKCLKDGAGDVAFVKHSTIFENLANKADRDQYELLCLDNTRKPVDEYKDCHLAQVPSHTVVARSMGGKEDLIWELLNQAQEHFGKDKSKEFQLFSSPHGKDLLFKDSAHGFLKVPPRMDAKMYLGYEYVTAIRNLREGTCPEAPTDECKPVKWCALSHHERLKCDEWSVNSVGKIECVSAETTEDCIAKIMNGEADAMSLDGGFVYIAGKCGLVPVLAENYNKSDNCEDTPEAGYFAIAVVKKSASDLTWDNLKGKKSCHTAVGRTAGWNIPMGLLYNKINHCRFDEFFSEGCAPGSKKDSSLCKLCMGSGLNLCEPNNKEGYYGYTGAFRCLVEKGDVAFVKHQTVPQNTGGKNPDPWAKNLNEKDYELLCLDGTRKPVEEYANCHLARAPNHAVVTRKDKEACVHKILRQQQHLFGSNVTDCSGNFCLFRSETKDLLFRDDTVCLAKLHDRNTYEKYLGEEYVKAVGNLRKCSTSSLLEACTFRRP

B1: hARSA (enzyme)
chain: RPPNIVLIFADDLGYGDLGCYGHPSSTTPNLDQLAAGGLRFTDFYVPVSLCTPSRAALLTGRLPVRMGMYPGVLVPSSRGGLPLEEVTVAEVLAARGYLTGMAGKWHLGVGPEGAFLPPHQGFHRFLGIPYSHDQGPCQNLTCFPPATPCDGGCDQGLVPIPLLANLSVEAQPPWLPGLEARYMAFAHDLMADAQRQDRPFFLYYASHHTHYPQFSGQSFAERSGRGPFGDSLMELDAAVGTLMTAIGDLGLLEETLVIFTADNGPETMRMSRGGCSGLLRCGKGTTYEGGVREPALAFWPGHIAPGVTHELASSLDLLPTLAALAGAPLPNVTLDGFDLSPLLLGTGKSPRQSLFFYPSYPDEVRGVFAVRTGKYKAHFFTQGSAHSDTTADPACHASSSLTAHEPPLLYDLSKDPGENYNLLGGVAGATPEVLQALKQLQLLKAQLDAAVTFGPSQVARGEDPALQICCHPGCTPRPACCHCPDPHA
notes: Control enzyme without the VHH; also called rhARSA; hARSA-his
B1: no binding.

B2: hARSA-9056VHH-his (other)
chain: RPPNIVLIFADDLGYGDLGCYGHPSSTTPNLDQLAAGGLRFTDFYVPVSLCTPSRAALLTGRLPVRMGMYPGVLVPSSRGGLPLEEVTVAEVLAARGYLTGMAGKWHLGVGPEGAFLPPHQGFHRFLGIPYSHDQGPCQNLTCFPPATPCDGGCDQGLVPIPLLANLSVEAQPPWLPGLEARYMAFAHDLMADAQRQDRPFFLYYASHHTHYPQFSGQSFAERSGRGPFGDSLMELDAAVGTLMTAIGDLGLLEETLVIFTADNGPETMRMSRGGCSGLLRCGKGTTYEGGVREPALAFWPGHIAPGVTHELASSLDLLPTLAALAGAPLPNVTLDGFDLSPLLLGTGKSPRQSLFFYPSYPDEVRGVFAVRTGKYKAHFFTQGSAHSDTTADPACHASSSLTAHEPPLLYDLSKDPGENYNLLGGVAGATPEVLQALKQLQLLKAQLDAAVTFGPSQVARGEDPALQICCHPGCTPRPACCHCPDPHAGGGGSGGGGSGGGGSEVQLVESGGGLVQPGGSLRLSCAASGHAYGGNYMGWFRQAPGKGLEGVAVLYTGGGSTYYADSVKGRFTISEDNSKNTVYLQMNSLRAEDTAVYYCALALGSARWYTSSLDARAYNIWGQGTLVTVSSGGGGSHHHHHH
notes: Expressed in HEK293F cells
B2: binds.
